Test results taken from the supplement of paper PMC10567573.

B1: CCDC6 (parent)
chain: FTPPTSLTRAGMSYYNSPGLHVQH
B2: CCDC89 (parent)
chain: LNAELEEKMMQEAEKLKAQGEYSR

Variants of: B1
Test: protein stability index of a GFP-peptide fusion (GPS, HEK-293T) (PSI 1-6); higher = more stable
Conditions: c terminus: a fixed tail appended
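Also: lentivirally expressed fusions sorted by FACS into six bins by GFP to DsRed ratio, PSI derived from sequencing read proportions per bin multiplied by bin number.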

Protein stability index: each site, then its substitutions
L20: D 2.02; S 1.84; F 1.72; N 2.4; C 1.68; T 2.35; Y 1.51; A 2.14; W 2.79; E 2.27; R 2.62; G 2.93; H 1.72; M 1.8; P 1.67; K 2.25; Q 2.69; I 2.36; V 2.02
T8: S 1.83; Y 1.5; E 1.41; F 2.56; A 1.76; C 2.73; I 2.14; N 2.06; D 1.82; W 1.78; V 1.85; M 1.92; H 1.56; L 1.78; Q 2.53; G 2.06; K 1.46; P 2.46
A10: I 1.75; N 2.23; Y 2.72; T 1.68; E 2.15; P 1.91; V 1.98; D 1.37; Q 2; M 1.9; W 3.03; K 2.01; R 2.22; S 2.06; F 2.33; H 2.09; L 1.2
R9: F 2.94; I 1.45; E 2.63; G 1.59; H 1.27; Y 3.32; A 2.1; S 1.79; K 1.71; T 1.47; C 2.58; V 1.58; M 1.81; L 2.82; N 1.65; D 2.77; Q 2.54
S13: E 1.9; L 1.73; R 1.87; W 1.3; C 1.55; Y 1.86; P 1.96; M 1.34; A 2.18; D 1.43; I 1.69; F 2.54; G 1.39; V 1.97; T 1.39; K 2.11; N 1.77; H 1.67
G19: R 2.13; C 1.98; W 1.8; T 1.86; I 1.56; L 1.66; E 2.1; D 2.22; Q 2.87; Y 1.96; M 2.08; N 2.09; S 1.73; F 2.45; K 2.27; V 3.1; H 1.96; A 1.98
P18: H 1.38; A 2.28; F 1.25; T 2.11; G 2.05; N 1.78; V 2.27; Y 2.87; C 1.21; K 2.43; R 1.95; E 2.52; L 1.22; M 1.73; I 2.06; D 1.5; S 1.87; W 2.62; Q 2.16
Y15: T 2.51; S 2.21; R 2.33; E 2.35; K 2.33; A 2.24; P 2.57; C 1.99; W 3.27; L 2.22; V 2.89; F 2.5; Q 2.45; G 2.37; H 2.11; D 2.58; N 2.23; M 1.92; I 2.18
N16: R 1.42; F 1.33; A 2.42; P 1.89; V 2.32; C 2.06; D 2.33; G 1.53; H 2.12; L 2.09; Y 1.77; T 2.17; K 1.95; E 1.62; Q 1.94; M 1.89; I 1.98; S 1.65
M12: E 2.29; V 1.99; C 1.68; Q 1.73; Y 1.71; H 2.33; R 1.79; F 1.58; P 2.56; A 1.84; K 2.2; G 1.57; N 2.12; W 2.4; L 2.21; I 2.02; D 2.19; T 2.16; S 2
Q23: A 1.74; S 1.43; Y 2.06; F 1.92; M 1.31; R 2.08; C 1.65; H 1.88; V 2.3; W 3.23; G 1.56; L 2; D 1.69; K 2.34; I 2.46; N 1.2; P 1.79; T 1.73
Y14: T 2.33; N 2.6; R 3.18; A 2.09; G 2.31; W 1.67; Q 2.65; F 1.94; I 1.64; L 1.44; E 2.73; M 1.7; H 2.42; D 3.09; K 2.66; S 2.46; V 1.32; C 1.93; P 1.88
S17: I 1.7; E 1.93; V 1.86; F 2.95; Q 1.57; T 1.64; Y 1.68; H 1.83; W 2.48; G 2; L 1.78; D 2.09; K 2.04; N 1.24; M 1.32; R 1.76; A 2.94; C 1.24
H24: T 1.85; R 1.73; M 2.9; L 1.63; W 1.38; I 3.53; F 2.77; N 1.15; C 1.66; K 2.7; Q 1.86; A 1.56; Y 1.19; G 1.77; S 1.8; D 1.82; V 1.67; E 1.84; P 2.24
V22: D 1.86; K 2.25; T 1.97; A 1.7; Q 1.56; Y 2.32; R 2.01; L 1.95; S 1.74; H 1.87; I 2.14; G 2.01; C 1.51; E 2.18; W 1.22; F 1.51; M 1.64; N 1.98
H21: L 1.81; F 1.61; C 1.81; D 1.47; I 1.61; G 2.2; W 2.36; Y 1.25; N 1.97; Q 2.54; R 1.75; V 2.58; A 2.11; S 2.13; M 1.6; T 1.91; K 1.68; E 2.75; P 1.76
G11: H 1.69; K 1.19; S 2.23; Q 1.98; L 1.97; N 2.46; D 1.75; F 1.68; A 1.96; E 1.84; T 2.17; R 1.68; I 1.49; Y 2.12; V 1.56; C 1.71; M 1.91
L7: W 2.33; Y 2.39; V 1.56

Variants of: B2
Test: as above
Conditions: c terminus: a fixed tail appended

Protein stability index of substitutions, site by site:
L1: D 5.54; C 5.32; I 4.69; F 5.18; W 4.8; N 4.97; A 5.74; Y 4.95; K 5.3; H 4.89; V 4.41; M 5.2; R 5.17; S 5.21; E 4.91; T 4.98; Q 5.11; P 5.4
N2: F 4.17; D 3.11; A 4.98
